Measurements taken from patent US20240140995A1.

Key:
E. coli ColE-7 (E. coli) [1] = molecular target: E. coli ColE-7 (E. coli) (UniProt Q47112); test: SPR Biacore T200, 37 C, single cycle kinetics
[2] = molecular target: GthCol (Geobacillus thermoglucosidasius C-terminal Colicin DNase domain, C36A, H78A, engineered) (Geobacillus thermoglucosidasius); test: SPR Biacore T200, 37 C, single cycle kinetics
[3] = molecular target: GthCol (Geobacillus thermoglucosidasius C-terminal Colicin DNase domain, C36A, H78A, engineered) (Geobacillus thermoglucosidasius); test: SPR Biacore T200, 37 C, single cycle kinetics; […]
E. coli ColE-7 (E. coli) [4] = molecular target: E. coli ColE-7 (E. coli) (UniProt Q47112); test: SPR Biacore T200, 37 C, single cycle kinetics; biotinylated immunity protein on streptavidin sensor, colicin analyte 1.1-90 nM

With “GthIM (Geobacillus thermoglucosidasius immunity protein, C18A, engineered), singly biotinylated” the complex half-life t/2-diss (E. coli ColE-7 (E. coli) [1]) was < 1 min, the fold less affinity than GthIM/GthCol (E. coli ColE-7 (E. coli) [1]) was 65000 fold and the fold stronger than the IM7/ColE7 interaction [2] was > 30 fold. The GthCol concentration at which GthIM saturation is achieved [3] was 3 nM, the Kd [3] was < 0.2 pM and the MR (Molar Ratio, binding stoichiometry) [3] was 1.1. For the same substance, the koff [3] was < 1e-05 s⁻¹, the kon [3] was > 5e+07 M⁻¹ s⁻¹ and the MR (Molar Ratio, binding stoichiometry) (E. coli ColE-7 (E. coli) [4]) was 1.2.
